Laboratory results from patent publication US20230068663A1 (University of Texas, published 2023).

Columns and labels:
[1] = biological target: T1, LILRB2 chimeric receptor on LILRB2 reporter cells (extracellular domain of LILRB2 fused with … (UniProt Q8N423 22-460)); experiment: flow cytometry, LILRB2 reporter cells
T1 construct: extracellular domain;domain: transmembrane/intracellular domains; associates with DAP12; also called LILRB2-expressing reporter cells
Text: FIGS. 1A-C. Screening specific monoclonal antibodies for LILRB2. […] Binding of monoclonal antibodies was screened using flow cytometer on LILRB2 reporter cells. Bound antibodies were detected with Allophycocyanin (APC)-labeled goat anti-human IgG secondary antibody. (FIG. 1B) Quantification of binding ability of monoclonal antibodies to LILRB2 reporter cells.
Screening specific monoclonal antibodies for LILRB2. The inventors employed a stable reporter cell system to detect the binding ability of selected monoclonal antibodies to LILRB2. In this chimeric receptor reporter system, the extracellular domain (ECD) of LILRB2 is fused with transmembrane/intracellular domains of PILRb that associates with the adaptor protein DAP12 containing an immunoreceptor tyrosine-based activation motif. 27 monoclonal antibodies were screened. The LILRB2 reporter cells were incubated with selected monoclonal antibody, then labeled with (APC) goat anti-human IgG secondary antibody. […] The inventors generated LILRBAs and LILRBs reporters stably transduced with each receptor's extracellular domain (ECD).

[2] = biological target: T1, LILRB2 chimeric receptor on LILRB2 …; experiment: cell-based or functional assay
[3] = biological target: T2, full length human LILRB2 stably expressed on HEK293 cells (human, UniProt Q8N423 22-597); experiment: competition flow cytometry, inhibition of HLA-G-His binding to HEK293 cells expressing LILRB2
T2 construct: whole, on cells; also called HEK293_LILRB2
Procedure: FIG. 33. […] All incubations were performed for 30 minutes at 4° C. Data shown is averaged geometric mean of fluorescence intensity ± standard error of the mean (s.e.m.) from duplicate samples acquired in a flow cytometer (BD FACS Celesta).

LILRB2-His antigen = biological target: T3, LILRB2-His antigen (UniProt Q8N423 22-460, limits assumed); experiment: indirect ELISA, coated LILRB2-His
T3 construct: Coated on ELISA plates; also used for phage panning; also called LILRB2 antigen; not shown: His tag
Procedure: ELISA binding EC of LILRB2 antibodies. The ELISA binding EC₅₀ of these 24 antibodies were measured by indirect ELISA. […] After incubation, HRP-conjugated goat anti-human Fc secondary antibody was incubated with the plates. The TMB substrate was added for color development and measurement of absorbance at 450 nm.

[4] = biological target: T4, endogenous LILRB2 on human myeloid cells / primary monocytes (human, UniProt Q8N423 22-597); experiment: flow cytometry, CD14+CD16- monocytes, AF647-conjugated antibody
T4 construct: whole, on cells; also called cells expressing endogenous LILRB2
Procedure: FIG. 32. Binding of LILRB2 antibodies on CD14⁺CD16-monocytes isolated from human PBMC from healthy donors. Fifty thousand cells were incubated for 30 minutes at 4° C. with a dilution series (40-0.0006 μg/mL) of LILRB2 antibodies directly conjugated to AF647 in a final volume of 100 μL. Data shown is averaged geometric mean of fluorescence intensity from duplicate samples acquired in a flow cytometer (BD FACS Celesta) from one donor and is representative of 2 experiments with cells isolated from different donors.

Binder	% of cells anti-hIgG APC+ [1]	Blocking potency (IC50) of GFP expression in LILRB2 reporter cells induced by coated ANGPTL2 [2]	IC50 [3]	EC50 (LILRB2-His antigen)	EC50 [4]
B2-16 (antibody, V domains shown, also called B2-16_HC; B2-16_LC) VH: QVQLVQSGAEVKKPGSSVKVSCKASGGTFSSYAISWVRQAPGQGLEWMGGIIPIFGTANYAQKFQGRVTITADESTSTAYMELSSLRSEDTAVYYCASGIIPDNPYGMDVWGQGTMVSVSS VL: DIVMTQSPLSLPVTLGQPASISCTSSQSLVYSDGNTYLNWFHQRPGQSPRRLFYKVSNRASGVPDRFSGSGSGTDFTLKISRVEAEDLGVYYCMQGTHWPVTFGQGTRLEIK	95%	0.131 mg/L	0.915 mg/L	0.00997 µM	0.547 mg/L
B2-15 (antibody, V domains shown, also called B-15; B2-15_HC) VH: EVQLVQSGAEVKKSGASVKVSCKSSGYTFTNYGISWVRQAPGQGLEWMGWISGDAGDTKFAQKFQGRVTMTTDTSTTTTYMELRSLRSDDTAVYYCARDGEYIPMFRGFDNYYGLDVWGQGTLVSVSS VL: QSVLTQPPSASATPGQRVTISCSGRNANIGSNPVNWYQQLPGTAPRLVMYSNNQRPSGVPDRFSGSKSGTSASLAISGLQSEDEADYYCEGWDDSLNGYVFGTGTKVTVL	94.3%	0.341 mg/L	0.16 mg/L	0.0465 µM	0.056 mg/L
B2-7 (antibody, V domains shown, also called B2-7_HC; B2-7_LC) VH: EVQLVESGGGVVQPGRSLRLSCAASGFTISSYGMHWVRQAPGKGLEWVAVISYDGSNKYYADSVKGRFTISRDNSKNTLYLQMNSLRVEDTAVYYCAKDLLLRYFDWSPKYYYNGMDVWGQGTMVTVSS VL: QSVLTQPPSVSVAPGKTARITCGGNNIGSKSVHWYQQKPGQAPVLVVYDDSDRPSGIPERFSGSNSGNTATLTISRVEAGDEADYYCQVWDSSSDHPGVFGTGTKVTVL	94.2%	0.221 mg/L	0.507 mg/L	0.0829 µM	0.332 mg/L

Further lines, results first:

% of cells anti-hIgG APC+ [1]	Blocking potency (IC50) of GFP expression in LILRB2 reporter cells induced by coated ANGPTL2 [2]	IC50 [3]	EC50 (LILRB2-His antigen)	EC50 [4]	Binder
95.3%	0.0485 mg/L	0.583 mg/L	0.00382 µM	0.219 mg/L	B2-19 (antibody, V domains shown, also called B2-19_HC; B2-19_LC) VH: not shown VL: QPVLTQPPSVSEAPRQRVTISCSGSSSNIGNNVVNWYQQLPGKAPKLLIYYDDLLPSGVSDRFSGSKSGTSASLAISGLQSEDEADYYCATWDDSLNGPVFGGGTKLTVL
94.3%	0.405 mg/L	0.209 mg/L	0.0246 µM	> 10 mg/L	B2-17 (antibody, V domains shown, also called B2-17_HC; B2-17_LC) VH: EVQLLDSGPRLLKPSETLSLTCGVSGVSTSSTHWWSWVRQTPGKGLEWIGEILHNGNTNSNPSLKSRVSMSIDKSRNQFSLQLKSMTAADTAVYYCASASPNWGASGAFDAWAQGTMVTVSS VL: QSVLTQPPSASATPGQRVTISCSGSSSNIGSNPVNWYQQVPGMAPELVMYSDNQRPSGVPDRFSGSNSGTSASLAISGLQSEDEADYYCSTWDDSLNGLVFGTGTKVTVL
